Laboratory results: patent publication US20220298231A1 (AC IMMUNE, published 2022)
Values belong to the binder of their own block, whether it stands above or below them. Where no end group is shown, it is not given here. The star is where a group is joined. Biotin = O=C1N[C@H]2[C@H](CS[C@H]2CCCCC(=O)*)N1; Ahx = NCCCCCC(=O)O

What was measured:
[1] = target: human full-length alpha-synuclein (human, UniProt P37840 1-140); assay: SPR, mAb captured
Procedure: (§1) Immobilization levels were evaluated following ethanolamine capping (Bound) and finally following regeneration (Final). Non-covalent immobilization of alpha-synuclein antibodies was performed using a target immobilization method of 2000 response units (RU).
(§2) Binding affinity of alpha-synuclein antibodies to monomeric or fibrillar alpha-synuclein species was performed using a single-cycle kinetics method. […] A dissociation phase of 900 sec followed the final 50 nM injection. Regeneration of the sensor to the goat anti-mouse antibody layer was achieved using 3 regenerations of 10 mM Glycine pH 1.7. […] Regeneration of the sensor to the goat anti-mouse antibody layer was achieved using 3 regenerations of 10 mM Glycine pH 1.7. Results obtained from single-cycle kinetics were evaluated by Biacore T200 evaluation software with 1:1 binding homogenous Langmuir model (with a global Rmax) with Cycle 5 as a blank subtraction. The following kinetic parameters were obtained: on-rate (ka), off-rate (kd), affinity constant (KD, ratio of kd by ka), maximum response (Rmax), and goodness of fit (Chi2).
(§3) Non-covalent capture of the alpha-synuclein antibodies was performed in three separate runs.

[2] = target: alpha-synuclein fibrils (Homo sapiens (Human), UniProt P37840 1-140); assay: SPR, mAb captured
Procedure: as §1, §2, §3

[3] = target: 28-42aa; assay: 15-mer peptide ELISA
Procedure: (§4) Epitope mapping for the antibodies derived from stable hybridoma clones was determined using an indirect ELISA on a library of 15-mer peptides covering the entire sequence of human alpha-synuclein from 1 to 140aa. […] Results are expressed as optical density (O.D.). Each bar represents data for an individual antibody.
(§5) Serum-free supernatants were harvested from stable hybridomas. The supernatants containing antibodies of interest were then screened by an indirect ELISA assay to determine epitopes. Epitopes were first determined using a library of 15-mer peptides covering the entire sequence of human alpha-synuclein protein, spanning amino acids (aa) 1-140 with 9aa offset and 6aa overlap. […] Briefly, streptavidin-coated ELISA plates were blocked overnight at 4° C. […] Plates were washed with PBS/0.05% Tween® 20 and then incubated with the hybridoma supernatants at 1/100 dilution for 1 hour at 25° C. […] After final wash, plates were incubated 2 hours at 25° C. with alkaline phosphatase substrate (p-nitrophenyl phosphate disodium hexahydrate; pNPP, S0942, Sigma) and read the absorbance optical density (O.D.) signal at 405 nm using an ELISA plate reader (Tecan, Switzerland).

[4] = target: T1, 37-51aa; assay: 15-mer peptide ELISA
T1 construct: also called alpha-synuclein peptide 37-51
T1 peptide: {Biotin-Ahx}-VLYVGSKTKEGVVHG
Procedure: as §4, §5

[5] = target: T2, 82-96aa; assay: 15-mer peptide ELISA
T2 construct: also called alpha-synuclein peptide 82-96
T2 peptide: {Biotin-Ahx}-VEGAGSIAAATGFVK
Procedure: as §4, §5

[6] = target: T3, 91-105aa; assay: 15-mer peptide ELISA
T3 construct: also called alpha-synuclein peptide 91-105
T3 peptide: {Biotin-Ahx}-ATGFVKKDQLGKNEE
Procedure: as §4, §5

[7] = target: T4, 1-15aa; assay: indirect ELISA on biotinylated 15-mer peptide (streptavidin plate), supernatant 1/100
T4 construct: also called alpha-synuclein peptide 1-15
T4 peptide: {Biotin-Ahx}-MDVFMKGLSKAKEGV
Procedure: as §4, §5

[8] = target: T5, 100-114aa; assay: 15-mer peptide ELISA;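 further: indirect ELISA of hybridoma supernatant antibodies (1/100, 1 h) binding immobilized 15-mer peptides spanning human alpha-synuclein 1-140 on streptavidin plates, read as optical density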
T5 peptide: {Biotin-Ahx}-LGKNEEGAPQEGILE
Procedure: as §4, §5

[9] = target: T6, 109-123aa; assay: 15-mer peptide ELISA;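 further: indirect ELISA of hybridoma supernatant antibodies (1/100, 1 h) binding immobilized 15-mer peptides spanning human alpha-synuclein 1-140 on streptavidin plates, read as optical density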
T6 peptide: {Biotin-Ahx}-QEGILEDMPVDPDNE
Procedure: as §4, §5

[10] = target: T2, 82-96aa; assay: indirect ELISA on biotinylated 15-mer peptide (streptavidin plate), supernatant 1/100
Procedure: as §4, §5

Kd [1]: 78.5 nM
koff [1]: 0.106 s⁻¹
kon [1]: 1.35e+06 M⁻¹ s⁻¹
Kd [2]: 9.5 nM
koff [2]: 0.00013 s⁻¹
kon [2]: 13700 M⁻¹ s⁻¹
binding result [3]: no binding (tested: supernatant 1/100)
binding result [4]: no binding (tested: supernatant 1/100)
binding result [5]: no binding (tested: supernatant 1/100)
binding result [6]: no binding (tested: supernatant 1/100)
binding result [7]: binds
B1: ACI-7088-4303B6-Ab2 (antibody, V domains shown)
VH: EVQLQQSGPELVKPGASVKISCKASGYTFTDYYMNWVKQSHGKSLEWIGDINPNNGGTTYNQKFKDKATLTVDRSSSTAYMELRSLTSGDSAVYYCARSGYSGSRLYYAMDYWSQGSSVTVSS
VL: DIVMSQSPSSLAVSAREKVTMSCKSSQSLLNSRTRKNYLAWYQQKPGQSPKLLIFWASTRESGVPDRFTGSGSGTDFTLTISSVQAEDLAVYYCKQSYDLWTFGGGTKLEIK
notes: mouse hybridoma mAb; tied by the hybridoma code 4303B6C11; also called ACI-7088-4303B6-Ab1; 4303B6C11

binding result [8]: no binding (tested: supernatant 1/100)
binding result [9]: no binding (tested: supernatant 1/100)
binding result [10]: binds
B2: ACI-8033-8C10-Ab1 (antibody, V domains shown)
VH: DVQLQESGPGLVKPSQSLSLTCSVTGQSITSGYYWNWIRQFPGNKLEWMGYISNDGSSKTNPSLTNRISVTRDTSKNQVFLKLKSVTTEDTATYYCVRGDQHWGQGTALTVSS
VL: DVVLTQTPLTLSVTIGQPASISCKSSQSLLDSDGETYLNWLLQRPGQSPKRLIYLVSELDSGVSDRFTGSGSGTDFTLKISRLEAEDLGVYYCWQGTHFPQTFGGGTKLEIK
notes: mouse hybridoma mAb; also called 917.8C10C6G3
